Laboratory results: IntAct's records for PubMed 15983381

B1: Parkinson disease protein 7 (Homo sapiens), Q99497 (parent)
chain: MASKRALVILAKGAEEMETVIPVDVMRRAGIKVTVAGLAGKDPVQCSRDVVICPDASLEDAKKEGPYDVVVLPGGNLGAQNLSESAAVKEILKEQENRKGLIAAICAGPTALLAHEIGFGSKVTTHPLAKDKMMNGGHYTYSENRVEKDGLILTSRGPGTSFEFALAIVEALNGKEVAAQVKAPLVLKD

Variants of: B1
Conditions: with daxx_human DAXX

| effect of a mutation on the interaction | Variant |
| --- | --- |
| decreasing interaction | L166P |
